No end group written: not given here.
Columns and labels:
nesfatin [1] = assay: Specificity of immunohistochemical stain of rat hypothalamus with anti-nesfatin-1 antibody after pre-reaction with peptides; format: binding; settings: 5 µg peptide per 1 µg antibody
Experimental: In a method similar to that in Working Example 4, immunohistochemical stain was carried out on tissue sections of the rat brain each containing arcuate nucleus and paraventricular nucleus, in which anti-nesfatin-1 antibody (nesfatin-1 IgG; Working Example 10) was used in stead of a anti-NAP polyclonal antibody as the primary antibody.

nesfatin [2] = assay: Binding specificity of anti-nesfatin-1 antibody: Western blotting of rat brain extracts after pre-reaction with peptides; settings: 5 µg peptide per 1 µg anti-nesfatin-1 antibody, room temperature, 1 hour
Experimental: Western blotting analysis was carried out by the method described in Working Example 3 with the primary antibody being changed from anti-NAP polyclonal antibody to anti-nesfatin-1 antibody.

[3] = Single administration of nesfatin-1, nesfatin-2, nesfatin-3 or nesfatin-2/3 into the third ventricle, amount of food intake; format: in vivo, Wistar rats
Experimental: Samples used for intracerebral administration were PBS alone (vehicle group), or nesfatin-1, nesfatin-2, nesfatin-3 or nesfatin-2/3 prepared in Working Example 10 each dissolved in PBS, and 25 pmol was administered per individual into the third ventricle immediately before the dark period. Rats used were Wistar rats (purchased from Nippon SLC) and were housed as in Working Example 6, and among 8-9 week-old male Wistar rats, those individuals weighing 200-250 g were selected and used (N=5). The technique of intraventricular administration and the measurement of the amount of food intake in rats were carried out in a method similar to those in Workig Example 6. In the measurement of the amount of food intake, the reduced amount of food at 1 hour after administration (0-1 hr) and […] (1-3 hrs) was determined as food intake.
In the same condition above, 1, 5 or 25 pmol of nesfatin-1 as a sample was administered per rat individual into the third ventricle immediately before the dark period. In this experiment, the amount of food intake was determined at 1 hour after administration (0-1 hr).
The experimental condition was similar to that in Working Example 12, and 5 pmol of nesfatin-1 was administered into the third ventricle of the rat brain immediately before the start of the dark period, the amount decreased of the food (the amount of food intake) during 1 hour immediately after administration (0-1 hr), during 2 hours from 1 hour after the administration (1-3 hr), during 3 hours from 3 hours after the administration (3-6 hr), and during 6 hours from 6 hours after the administration (6-12 hr) was measured as the amount of food intake. As the control group, the amount of food intake by individuals that received physiological saline alone was measured.

[4] = Continuous intraventricular administration of nesfatin-1 by osmotic pump, amount of food intake and body weight; format: in vivo, Wistar rats; settings: 5 pmol per day into the third ventricle, 10 consecutive days, vs physiological saline
Experimental: The administration of nesfatin-1 was carried out into the ventricle by an osmotic pump for 10 consecutive days. Among 8 week-old male Wistar rats (purchased from Nippon SLC), those individuals weighing 200-250 g were used. The rats received intraperitoneal administration of 40 mg/kg body weight of pentobarbital sodium for anesthesia. After the hair was removed from the head, they were fixed in a brain stereotaxic apparatus (David Kopf Instruments, Model 962) and the scalp was incised and a 23G needle (guide cannula) was implanted so that the tip reaches the third ventricle (2.5 mm behind the bregma, 9.5 mm from the surface). One week after implanting the guide cannula, the animals were subjected to the experiment. The osmotic pump used was Alzet's Model 2002. […] The measurement of the amount of food intake started from the day after the cannula and the osmotic pump were implanted, and the weight of the residual food was measured at 9 a.m. every day, and by determining the difference from the weight of the food on the previous day, the amount of food intake of the day (24 hours) was calculated. From day 6 after the start of administration, body weight was measured at the time of measuring the amount of food intake, and changes in body weight were also recorded.

[5] = Continuous administration of nesfatin-1 into the rat ventricle, weight of adipose tissues and muscle; format: in vivo; settings: 5 pmol per day, third ventricle, osmotic pump, 10 days; vs physiological saline
Experimental: Nesfatin-1 (5 pmol per day) or physiological saline alone (the control group) was administered into the third ventricle of a rat using an osmotic pump for 10 consecutive days (5 and 4 rats were used per group). Intraventricular administration into rats by the osmotic pump was carried out in a manner similar to that in Working Example 13.
After the administration of nesfatin-1 or physiological saline alone for 10 days, each rat was sacrificed, dissected to excise all of the abdominal subcutaneous adipose tissue, the epididymal adipose tissue (these are white adipose tissue) and the retroperitoneal brown adipose tissue, and the weight of them was measured. Also, the gastrocnemial muscles of the bilateral hind legs were harvested and the weight of them was measured. From the weight of the tissues measured, their ratio to the body weight of each individual was determined (tissue weight/body weight, mg/g). For testing of significant difference, analysis of variance was used.

[6] = Intraventricular administration of nesfatin-1 alone or leptin alone, amount of food intake; format: in vivo, rat; settings: 5 pmol nesfatin-1 alone, third ventricle; vs control group (physiological saline)
Experimental: The experimental condition was similar to that in Working Example 12, and for a group that received 5 pmol of nesfatin-1 alone into the third ventricle of the rat brain immediately before the start of the dark period and a group that received 5 pmol of nesfatin-1 and 8 µg of anti-nesfatin-1 antibody (nesfatin-1 IgG), the amount of food intake for 1 hour after administration was measured and compared to that for the control group (physiological saline alone was administered). Also, for a group that received only leptin (Rat leptin: R & D Systems, 598-LP-01M) (1 µg) which is known to have an activity of suppressing food intake by intraventricular administration and a group that received leptin and anti-nesfatin-1 antibody, its effect on food intake was also studied.

[7] = rat brain tissue containing the arcuate nucleus
[8] = rat brain tissue section containing the paraventricular nucleus

Molecule: CART: Rat Cocaine- and Amphetamine-Regulated Transcript 55-102; Peptide Institute, Inc., 4351-s (IPIYEKKYGQVPMCDAGEQCAVRKGARIGKLCDCPRGTSCNSFLLKCL; ends and bridges not checked; cysteine pairing not given here)
- immunological stain with anti-nesfatin-1 antibody after pre-reaction with the peptide (nesfatin [1]; [7]): does not disappear
- immunological stain with anti-nesfatin-1 antibody after pre-reaction with the peptide (nesfatin [1]; [8]): does not disappear

Molecule: MCH: Human Melanin-Concentrating Hormone; Peptide Institute, Inc., 4369-v
- 47.5 kd band of nesfatin in Western blotting after pre-reaction of anti-nesfatin-1 antibody with the peptide (nesfatin [2]): did not disappear

Molecule: NPY: Human, Rat Neuropeptide Y; Peptide Institute, Inc., 4158-v
- 47.5 kd band of nesfatin in Western blotting after pre-reaction of anti-nesfatin-1 antibody with the peptide (nesfatin [2]): did not disappear
- immunological stain with anti-nesfatin-1 antibody after pre-reaction with the peptide (nesfatin [1]; [7]): does not disappear
- immunological stain with anti-nesfatin-1 antibody after pre-reaction with the peptide (nesfatin [1]; [8]): does not disappear

Molecule: Orexin-A: Human, Rat, Mouse, Bovine Orexin-A; Peptide Institute, Inc., 4346-s (QPLPDCCRQKTCSCRLYELLHGAGNHAAGILTL)
- 47.5 kd band of nesfatin in Western blotting after pre-reaction of anti-nesfatin-1 antibody with the peptide (nesfatin [2]): did not disappear

B1: nesfatin-1: peptide of 82 residues, amino acid Nos. 25 to 106 of nesfatin; rat nesfatin-1 (SEQ ID NO: 15) by solid-phase synthesis (peptide, UniProt Q9JI85 25-106, looked up)
Nesfatin-1: VPIDVDKTKVHNVEPVESARIEPPDTGLYYDEYLKQVIEVLETDPHFREKLQKADIEEIRSGRLSQELDLVSHKVRTRLDEL
modifications: Nesfatin-1
- amount of food intake ([3]; 5 pmol, third ventricle, 0-1 hr, vs saline group (0)): significant decrerased amount of food intake
- amount of food intake ([3]; 25 pmol into the third ventricle immediately before the dark period, 0-1 hr, vs control (PBS)): marked effect on the suppression of feeding
- amount of food intake ([3]; 25 pmol into the third ventricle immediately before the dark period, 1-3 hr, vs control (PBS)): marked effect on the suppression of feeding
- amount of food intake ([3]; 25 pmol, third ventricle, 0-1 hr, dose experiment, vs saline group (0)): significant decrerased amount of food intake
- amount of food intake ([3]; 1, 5 or 25 pmol per rat, third ventricle, 0-1 hr, dose relation vs saline group (0)): decreased amount of food intake, with the increased amount of the administered nesfation-1
- amount of food intake ([3]; Working Example 27, 5 pmol, third ventricle, 0-1 hr, p<0.01 vs control): Significant decreases in the amount of food intake
- amount of food intake ([3]; Working Example 27, 5 pmol, third ventricle, 1-3 hr, p<0.01 vs control): Significant decreases in the amount of food intake
- amount of food intake ([3]; Working Example 27, 5 pmol, third ventricle, 3-6 hr, p<0.01 vs control): Significant decreases in the amount of food intake
- amount of food intake ([3]; Working Example 27, 5 pmol, third ventricle, 6-12 hr, p<0.01 vs control): an increase in the amount of food intake
- amount of food intake of the day (24 hours) [4]: decrease in the amount of food intake was noted from day 1
- rate of increase in body weight [4]: significantly declined
- immunological stain with anti-nesfatin-1 antibody after pre-reaction with the peptide (nesfatin [1]; [7]): the stain disappears
- immunological stain with anti-nesfatin-1 antibody after pre-reaction with the peptide (nesfatin [1]; [8]): the stain disappears
- ratio of tissue weight to body weight, abdominal subcutaneous adipose tissue [5]: significant decreases in the ratio of tissue weight to body weight
- ratio of tissue weight to body weight, epididymal adipose tissue [5]: significant decreases in the ratio of tissue weight to body weight
- ratio of tissue weight to body weight, mesenteric adipose tissue [5]: significant decreases in the ratio of tissue weight to body weight
- ratio of tissue weight to body weight, retroperitoneal adipose tissue [5]: tended to decrease but no significant difference
- total tissue weight to the body weight, brown adipose tissue [5]: no significant difference
- total tissue weight to the body weight, gastrocnemial muscle [5]: no significant difference

B2: recombinant nesfatin: recombinant matured mouse nesfatin (SEQ ID NO: 26) from E. coli GST-NEFA fusion protein treated with protease (protein)
chain: GSPIDVDKTKVHNTEPVENARIEPPDTGLYYDEYLKQVIEVLETDPHFREKLQKADIEEIRSGRLSQELDLVSHKVRTRLDELKRQEVGRLRMLIKAKLDALQDTGMNHHLLLKQFEHLNHQNPNTFESRDLDMLIKAATADLEQYDRTRHEEFKKYEMMKEHERREYLKTLSEEKRKEEESKFEEMKRKHEDHPKVNHPGSKDQLKEVWEETDGLDPNDFDPKTFFKLHDVNNDGFLDEQELEALFTRELEKVYNPQNAEDDMIEMEEERLRMREHVMSEIDNNKDRLVTLEEFLRATEKKEFLEPDSWETLDQQQLFTEDELKEYESIIAIQENELKKRAEELQKQKEDLQRQHDHLEAQKQEYHQAVQHLEQKKLQQGIAPSGPAGELKFEPHT
- amount of food intake for 1 hour after administration [6]: significantly decreased

Reference: patent EP1900813A1, “NOVEL PHYSIOLOGICAL SUBSTANCE NESFATIN, SUBSTANCE RELEVANT THERETO, AND USE OF THE SUBSTANCES” (Teijin Pharma Limited, priority 2005, dated 2008)
